The values below come from publication PMC12560131.

The target in test [1] is Adalimumab–pM440 complex (Mycoplasma genitalium) (UniProt P47523). Put plainly: SPR. Background: SPR reads the build-up and loss of mass on a sensor chip optically.
Test [2] shares this target. Put plainly: SPR; single-cycle kinetic titration of TNFα on Adalimumab or on the Adalimumab-pM440 complex.
The target in the next test is Adalimumab. As to the kind of experiment: SPR.

For orientation: koff means the rate constant with which the complex falls apart. For orientation: kon means a measure of how fast the partners come together. Lower therefore signals slower complex formation. The Kd is a measure of binding affinity in units of concentration.

In test [1], “TNFα (from UniProt P01375 1-233) (ligand)” came in with a fold decrease in affinity against Adalimumab without pM440 of 3 fold, a koff of 0.00046 s⁻¹ and a kon of 160000 M⁻¹ s⁻¹. The substance also gave a dissociation constant (Kd) in test [2] of 2.94 nM.
Turning to “protein M440 (from UniProt P47523 1-440) (domain or fragment)”, the Kd in the test with Adalimumab is below 0.15 nM.
